Experimental data from paper PMC9622777, “Eradication of tumors and development of anti-cancer immunity using STINGa targeted by pHLIP” (Frontiers in Oncology, 2022).
Where a SMILES comes first, the peptide text is derived from it. [ ]: non-standard residue; d: D form. The star is where a group is joined. X1 = CCn1nc(C)cc1C(=O)Nc1nc2cc(C(N)=O)cc(OC)c2n1C/C=C/Cn1c(NC(=O)c2cc(C)nn2CC)nc2cc(C(N)=O)cc(OCCC[N+]3(Cc4ccc(NC(=O)OCCS*)cc4)CCOCC3)c21

Legend:
[1] = Stability in mouse plasma; assay type: in vitro ADME
Experimental: (§1) To establish the stability of pHLIP(Laa)-STINGa and pHLIP(Daa)-STINGa in plasma, pHLIP-STINGa was mixed with single donor human or BALB/c mouse plasma (Innovative Research) at a concentration of 200 μM, and kept in plasma for 0, 2, 4 or 24 hours at 37°C. Plasma proteins were precipitated by methanol (1:5 volume ratio of plasma to methanol) and centrifugated for 10 min at […]. The supernatant was collected and analyzed by HPLC using a Zorbax SB-C18 4.6 × 250 mm, 5 μm column with a gradient from 10% to 75% acetonitrile in water containing 0.05% TFA. Chromatograms were recorded at 220 nm, 280 nm and 320 nm. As controls pHLIP(Laa), pHLIP(Daa), Pys-PAB-STINGa, SH-PAB-STINGa, where Pys-PAB-STINGa was conjugated with a Cys residue, and diABZI (In vivogen) were analyzed for stability in plasma under the same conditions.

[2] = system: mouse plasma proteins; assay: Binding to mouse plasma proteins (plasma stability study); assay type: in vitro ADME; settings: BALB/c mouse plasma, 200 μM, 37°C, HPLC
Experimental: as §1

[3] = Stability in human plasma; assay type: in vitro ADME
Experimental: as §1

[4] = system: human plasma proteins; assay: Binding to human plasma proteins (plasma stability study); assay type: in vitro ADME; settings: for amount of product bound to plasma proteins (in brackets): single donor human plasma, 200 μM, 37°C, HPLC
Experimental: as §1

[5] = system: tumor stroma and immune cells within CT26 tumors; assay: FACS analysis of uptake by tumor stroma and immune cells within CT26 tumors; settings: mouse, in vivo, ip
Experimental: Animal studies on mice were conducted at the Charles River Discovery Service in compliance with the principles and procedures outlined by the National Institutes of Health for the care and use of animals. Uptake of Al647-pHLIP(Laa)-STINGa by tumor cells within CT26 tumors was analyzed by fluorescence activated cell sorting (FACS) analysis. […] When tumors reached 150-250 mm^3 in volume mice were separated into two groups. Eight mice from the treated group #1 received a single IP injection of Al647-pHLIP(Laa)-STINGa (300 µM 100 µl), and five mice from the control group #2 received single IP injection of vehicle (1% DMSO in PBS). 24 hours later all animals were euthanized, and tumors were collected for processing. Tumor stroma and immune cells were identified using the following markers:
• CD4 T cells: CD45^+, CD3^+, CD11b^-, CD4^+, CD8^- • CD8 T cells: CD45^+, CD3^+, CD11b^-, CD4^-, CD8^+ • Treg: CD45^+, CD3^+, CD11b^-, CD4^+, CD25^+, FoxP3^+ • mMDSC: CD45^+, CD3^-, CD11b^+, F4/80^-, Ly6C^high, Ly6G^- • gMDSC: CD45^+, CD3^-, CD11b^+, F4/80^-, Ly6C^low, Ly6G^+ • M1: CD45^+, CD11b^+, F4/80^+, CD206^- • M2: CD45^+, CD11b^+, F4/80^+, CD206^+ • DC: CD45^+, CD11b^+, CD11c^+, MHCII^+, F4/80^- • CAF: CD3^-, CD45^-, CD140b^+
The staining was performed for tumor samples, Fluorescence Minus One (FMO) controls and Single Color Controls (SCC) as indicated below:
The following anti-mouse antibodies were used: CD45-APC-Fire750 clone 30-F11, CD8a-BV650 clone 53-6.7, CD25-BV605 clone PC61, F4/80-PE-Dazzle-594 clone BM8, Ly-6C-FITC clone HK1.4, Ly-6G-BV785 clone 1A8, CD206-BV421 clone C068C2, CD140b-PE clone APB5, CD11c-BV711 clone N418, I-A/I-E-PE/Cy7 clone M5/114.15.2 from BioLegend; CD3e-BUV496 clone 145-2C11, CD4-BUV395 clone GK1.5; CD11b-BUV737 clone M1/70 from BD Biosciences, FoxP3 PerCP-Cy5.5 clone FJK-16s from Thermo Fisher and Live/Dead Aqua-V500 from Life Technologies. The procedure for tumor processing was the following: tumor samples were dissociated according to the manufacturer’s instructions using the gentleMACS™ protocol “Tumor Dissociation Kit”. Samples were filtered through a 70 µm cell strainer and rinsed twice in PBS/2.5% FBS buffer and total sample volumes were measured. Single cell suspensions were prepared in PBS pH 7.4 at 1x10^7 cells/mL and placed into individual wells of a 96-well plate and kept on ice. All incubation steps were carried out protected from light. The washing was performed by spinning the plate at 300x g (or 400x g) for 3 minutes and discarding the supernatant. Live/Dead reagent was added to each sample and incubated at 4°C for 15 minutes followed by washing. […]

[6] = mouse, in vivo, iv
Experimental: (§2) For pharmacokinetics (PK), biodistribution, pH imaging studies and immunohistochemistry, 5x10^4 of CT26 cancer cells were injected SQ in 100 µl of growth medium into the right flank of female Balb/c mice and tumors were grown until they reached 150-200 mm^3 in volume. […] Animals were euthanized at 2, 4, 24, 48, 72 and 96 hours post-injection, blood was collected in K2 EDTA vacutainer blood collection tubes (BD), and necropsy was performed immediately after euthanization. Blood, tumors and major organs (kidney, liver, spleen, pancreas, lung, heart, large and small intestines, bone, muscle, brain) were collected, and imaged ex vivo immediately after necropsy. Blood (150 µl) was imaged in 96-well plate with black bottom and walls. […] The fluorescence at zero-time point was taken as 100% and fluorescence recorded at 2, 4, 24 and 48 hrs p.i. were calculated as a percentage of zero-time point signal. […]
(§3) The in vivo and ex vivo bright field and near-infrared fluorescent imaging was performed using a Stryker 1588 AIM endoscopic system with L10 AIM Light Source (808 nm excitation and collection of light in the range of approximately of 815 to 850 nm), and a 1588 AIM Camera using a 10 mm scope. […] The calculated total fluorescence intensity and total area of each organ were used to calculate the mean organ fluorescence.

[7] = system: CT26 tumor; settings: mouse, in vivo
Experimental: as §2, §3

Compound: CCn1nc(C)cc1C(=O)Nc1nc2cc(C(N)=O)cc(OC)c2n1C/C=C/Cn1c(NC(=O)c2cc(C)nn2CC)nc2cc(C(N)=O)cc(OCCC[N+]3(Cc4ccc(NC(=O)OCCSSC[C@@H](NC(=O)[C@@H](Cc5c[nH]c6ccccc56)NC(=O)[C@@H](CC(C)C)NC(=O)[C@@H](CC(C)C)NC(=O)[C@@H](CC(=O)O)NC(=O)[C@@H](CC(C)C)NC(=O)[C@@H](CC(C)C)NC(=O)[C@@H](CC(C)C)NC(=O)[C@H](NC(=O)[C@@H](CC(=O)O)NC(=O)[C@H](NC(=O)[C@H]5CCCN5C(=O)[C@@H](Cc5ccccc5)NC(=O)[C@@H](CC(C)C)NC(=O)[C@@H](CC(C)C)NC(=O)[C@@H](CC(=O)O)NC(=O)[C@@H](CC(C)C)NC(=O)[C@@H](Cc5ccc(O)cc5)NC(=O)[C@@H](C)NC(=O)[C@@H](CCCNC(=N)N)NC(=O)[C@@H](Cc5c[nH]c6ccccc56)NC(=O)[C@H]5CCCN5C(=O)[C@@H](CC(N)=O)NC(=O)[C@@H](CC(=O)O)NC(=O)[C@@H](CCC(N)=O)NC(=O)[C@@H](CC(=O)O)NC(=O)[C@@H](C)N)[C@H](C)O)[C@H](C)O)C(=O)NCC(=O)O)cc4)CCOCC3)c21 [pHLIP(Daa)-STINGa] (H-[dA][dD][dQ][dD][dN][dP][dW][dR][dA][dY][dL][dD][dL][dL][dF][dP][dT][dD][dT][dL][dL][dL][dD][dL][dL][dW][dC](X1)G-OH; N-terminus and C-terminus assumed)
- amount of undegraded product (free fraction) ([1]; BALB/c mouse plasma, 200 μM, 37°C, 0 h, methanol precipitation, HPLC C18, UV 220/280/320 nm): 99.4%
- remaining at 2 h, 200 μM ([1]; BALB/c mouse plasma, 200 μM, 37°C, 2 h, methanol precipitation, HPLC C18, UV, read-out: amount of undegraded product (free fraction)): 90.9%
- remaining at 4 h, 200 μM ([1]; BALB/c mouse plasma, 200 μM, 37°C, 4 h, methanol precipitation, HPLC C18, UV, read-out: amount of undegraded product (free fraction)): 84.5%
- remaining at 24 h, 200 μM ([1]; BALB/c mouse plasma, 200 μM, 37°C, 24 h, methanol precipitation, HPLC C18, UV, read-out: amount of undegraded product (free fraction)): 58.2%
- modified STINGa released from pHLIP ([1]; incubated with mouse plasma, 37°C (text summary of Table S1)): about 40%
- amount of product bound to plasma proteins (in brackets) ([2]; 0 h): 0%
- amount of product bound to plasma proteins (in brackets) ([2]; 2 h): 51.7%
- amount of product bound to plasma proteins (in brackets) ([2]; 4 h): 59.6%
- amount of product bound to plasma proteins (in brackets) ([2]; 24 h): 75.9%
- metabolised at 24 h, 200 μM ([3]; human plasma, over 24 hours, 37°C (text summary of Table S1), read-out: degradation): ~10%
- amount of undegraded product (free fraction) ([3]; single donor human plasma, 200 μM, 37°C, 0 h, methanol precipitation, HPLC C18, UV): 99.4%
- remaining at 2 h, 200 μM ([3]; single donor human plasma, 200 μM, 37°C, 2 h, methanol precipitation, HPLC C18, UV, read-out: amount of undegraded product (free fraction)): 99.2%
- remaining at 4 h, 200 μM ([3]; single donor human plasma, 200 μM, 37°C, 4 h, methanol precipitation, HPLC C18, UV, read-out: amount of undegraded product (free fraction)): 97.6%
- remaining at 24 h, 200 μM ([3]; single donor human plasma, 200 μM, 37°C, 24 h, methanol precipitation, HPLC C18, UV, read-out: amount of undegraded product (free fraction)): 89.6%
- binding to plasma proteins, in words ([4]; compared with the Laa version, especially human plasma proteins): much stronger binding to plasma proteins than the Laa version
- amount of product bound to plasma proteins (in brackets) ([4]; 0 h): 0%
- amount of product bound to plasma proteins (in brackets) ([4]; 2 h): 77.2%
- amount of product bound to plasma proteins (in brackets) ([4]; 4 h): 84.4%
- amount of product bound to plasma proteins (in brackets) ([4]; 24 h): 87.7%

Compound: AKDDQNPWRAYLDLLFPTDTLLLDLLWCG [Al647-pHLIP-STINGa]
- % of cells taken Al647-pHLIP-STINGa: CAFs [5]: 74%
- % of cells taken Al647-pHLIP-STINGa: CD8 T-cells [5]: 24%
- % of cells taken Al647-pHLIP-STINGa: DCs [5]: 52%
- % of cells taken Al647-pHLIP-STINGa: TAMs (CD206+) [5]: 71%

Compound: AKDDQNPWRAYLDLLFPTDTLLLDLLWCG [ICG-pHLIP-STINGa]
- half-life in blood [6]: 8.2 h
- persistence of fluorescence signal in the tumor [7]: 8 days
